Experimental data from the supplement of paper PMC10567573.

B1: BTBD1 (parent)
chain: TSAEIELPDVEPAAFLALLRFLYS
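Note: lentivirally expressed fusions sorted by FACS into six bins by GFP to DsRed ratio, PSI derived from sequencing read proportions per bin multiplied by bin number.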

Variants of: B1
Test: protein stability index of a GFP-peptide fusion (GPS, HEK-293T) (PSI 1-6); higher = more stable
Conditions: c terminus: a fixed tail appended
In the case of TSAIIELPDVEPAAFLALLRFLYS [E4I], the protein stability index is reported as 2.07.
TSAQIELPDVEPAAFLALLRFLYS [E4Q] gave a protein stability index of 2.14.
Variant TSANIELPDVEPAAFLALLRFLYS [E4N] has a protein stability index of 1.44.
With TSAPIELPDVEPAAFLALLRFLYS [E4P] the protein stability index was 1.64.
With TSAWIELPDVEPAAFLALLRFLYS [E4W] the protein stability index was 1.88.
TSAHIELPDVEPAAFLALLRFLYS [E4H] gave a protein stability index of 1.56.
With TSAVIELPDVEPAAFLALLRFLYS [E4V] the protein stability index was 1.55.
With TSATIELPDVEPAAFLALLRFLYS [E4T] the protein stability index was 1.73.
TSADIELPDVEPAAFLALLRFLYS [E4D] showed a protein stability index of 1.66.
In the case of TSALIELPDVEPAAFLALLRFLYS [E4L], the protein stability index is reported as 1.91.
Variant TSASIELPDVEPAAFLALLRFLYS [E4S] has a protein stability index of 1.45.
In the case of TSAAIELPDVEPAAFLALLRFLYS [E4A], the protein stability index is reported as 1.84.
For TSAKIELPDVEPAAFLALLRFLYS [E4K], the protein stability index was 1.17.
With TSAYIELPDVEPAAFLALLRFLYS [E4Y] the protein stability index was 1.68.
For TSARIELPDVEPAAFLALLRFLYS [E4R], the protein stability index was 1.59.
Variant TSAGIELPDVEPAAFLALLRFLYS [E4G] has a protein stability index of 2.07.
In the case of TSACIELPDVEPAAFLALLRFLYS [E4C], the protein stability index is reported as 1.8.
Variant TSAFIELPDVEPAAFLALLRFLYS [E4F] has a protein stability index of 2.24.
Work on TSAMIELPDVEPAAFLALLRFLYS [E4M] yielded a protein stability index of 1.55.
With TSAEIENPDVEPAAFLALLRFLYS [L7N] the protein stability index was 1.9.
In the case of TSAEIEWPDVEPAAFLALLRFLYS [L7W], the protein stability index is reported as 2.02.
In the case of TSAEIEGPDVEPAAFLALLRFLYS [L7G], the protein stability index is reported as 1.89.
For TSAEIEHPDVEPAAFLALLRFLYS [L7H], the protein stability index was 2.22.
With TSAEIEKPDVEPAAFLALLRFLYS [L7K] the protein stability index was 2.31.
TSAEIECPDVEPAAFLALLRFLYS [L7C] gave a protein stability index of 1.75.
Work on TSAEIEFPDVEPAAFLALLRFLYS [L7F] yielded a protein stability index of 1.96.
Variant TSAEIEMPDVEPAAFLALLRFLYS [L7M] has a protein stability index of 2.08.
Work on TSAEIEYPDVEPAAFLALLRFLYS [L7Y] yielded a protein stability index of 2.05.
In the case of TSAEIEPPDVEPAAFLALLRFLYS [L7P], the protein stability index is reported as 2.3.
TSAEIEQPDVEPAAFLALLRFLYS [L7Q] showed a protein stability index of 1.96.
With TSAEIETPDVEPAAFLALLRFLYS [L7T] the protein stability index was 1.75.
TSAEIEIPDVEPAAFLALLRFLYS [L7I] gave a protein stability index of 1.93.
Variant TSAEIEEPDVEPAAFLALLRFLYS [L7E] has a protein stability index of 1.63.
For TSAEIEVPDVEPAAFLALLRFLYS [L7V], the protein stability index was 1.98.
TSAEIERPDVEPAAFLALLRFLYS [L7R] gave a protein stability index of 2.28.
Work on TSAEIEDPDVEPAAFLALLRFLYS [L7D] yielded a protein stability index of 2.15.
TSAEIEAPDVEPAAFLALLRFLYS [L7A] showed a protein stability index of 1.88.
Work on TSAEIESPDVEPAAFLALLRFLYS [L7S] yielded a protein stability index of 1.79.
TSAEIELPDVLPAAFLALLRFLYS [E11L] showed a protein stability index of 1.88.
TSAEIELPDVNPAAFLALLRFLYS [E11N] gave a protein stability index of 2.15.
In the case of TSAEIELPDVAPAAFLALLRFLYS [E11A], the protein stability index is reported as 1.84.
Work on TSAEIELPDVVPAAFLALLRFLYS [E11V] yielded a protein stability index of 1.52.
For TSAEIELPDVYPAAFLALLRFLYS [E11Y], the protein stability index was 2.14.
With TSAEIELPDVQPAAFLALLRFLYS [E11Q] the protein stability index was 1.56.
TSAEIELPDVGPAAFLALLRFLYS [E11G] showed a protein stability index of 2.44.
Work on TSAEIELPDVKPAAFLALLRFLYS [E11K] yielded a protein stability index of 2.75.
For TSAEIELPDVMPAAFLALLRFLYS [E11M], the protein stability index was 1.32.
In the case of TSAEIELPDVHPAAFLALLRFLYS [E11H], the protein stability index is reported as 1.91.
With TSAEIELPDVIPAAFLALLRFLYS [E11I] the protein stability index was 2.38.
For TSAEIELPDVFPAAFLALLRFLYS [E11F], the protein stability index was 1.68.
For TSAEIELPDVPPAAFLALLRFLYS [E11P], the protein stability index was 1.98.
For TSAEIELPDVSPAAFLALLRFLYS [E11S], the protein stability index was 1.73.
In the case of TSAEIELPDVDPAAFLALLRFLYS [E11D], the protein stability index is reported as 1.69.
TSAEIELPDVTPAAFLALLRFLYS [E11T] gave a protein stability index of 2.4.
With TSAEIELPDVCPAAFLALLRFLYS [E11C] the protein stability index was 1.1.
Work on TSAEIELPDVWPAAFLALLRFLYS [E11W] yielded a protein stability index of 1.69.
Variant TSAEIELPDVRPAAFLALLRFLYS [E11R] has a protein stability index of 2.11.
With TSAEIELPDVEPDAFLALLRFLYS [A13D] the protein stability index was 2.02.
TSAEIELPDVEPEAFLALLRFLYS [A13E] gave a protein stability index of 1.85.
Work on TSAEIELPDVEPFAFLALLRFLYS [A13F] yielded a protein stability index of 1.55.
In the case of TSAEIELPDVEPCAFLALLRFLYS [A13C], the protein stability index is reported as 1.88.
In the case of TSAEISLPDVEPAAFLALLRFLYS [E6S], the protein stability index is reported as 2.49.
Variant TSAEIALPDVEPAAFLALLRFLYS [E6A] has a protein stability index of 2.19.
Variant TSAEIGLPDVEPAAFLALLRFLYS [E6G] has a protein stability index of 1.75.
Work on TSAEIQLPDVEPAAFLALLRFLYS [E6Q] yielded a protein stability index of 2.01.
TSAEIHLPDVEPAAFLALLRFLYS [E6H] showed a protein stability index of 1.78.
For TSAEIVLPDVEPAAFLALLRFLYS [E6V], the protein stability index was 1.67.
Variant TSAEITLPDVEPAAFLALLRFLYS [E6T] has a protein stability index of 2.1.
Variant TSAEIFLPDVEPAAFLALLRFLYS [E6F] has a protein stability index of 1.64.
TSAEIRLPDVEPAAFLALLRFLYS [E6R] gave a protein stability index of 1.84.
Variant TSAEIDLPDVEPAAFLALLRFLYS [E6D] has a protein stability index of 2.07.
With TSAEIILPDVEPAAFLALLRFLYS [E6I] the protein stability index was 2.82.
In the case of TSAEIYLPDVEPAAFLALLRFLYS [E6Y], the protein stability index is reported as 1.74.
Work on TSAEIKLPDVEPAAFLALLRFLYS [E6K] yielded a protein stability index of 2.13.
Work on TSAEINLPDVEPAAFLALLRFLYS [E6N] yielded a protein stability index of 1.96.
TSAEIPLPDVEPAAFLALLRFLYS [E6P] showed a protein stability index of 2.31.
TSAEIMLPDVEPAAFLALLRFLYS [E6M] showed a protein stability index of 2.22.
TSAEICLPDVEPAAFLALLRFLYS [E6C] showed a protein stability index of 2.3.
TSAEILLPDVEPAAFLALLRFLYS [E6L] showed a protein stability index of 1.73.
Work on TSAEIWLPDVEPAAFLALLRFLYS [E6W] yielded a protein stability index of 1.85.
With TSAEIELDDVEPAAFLALLRFLYS [P8D] the protein stability index was 1.95.
Variant TSAEIELMDVEPAAFLALLRFLYS [P8M] has a protein stability index of 1.9.
TSAEIELLDVEPAAFLALLRFLYS [P8L] showed a protein stability index of 1.26.
TSAEIELQDVEPAAFLALLRFLYS [P8Q] gave a protein stability index of 1.76.
With TSAEIELHDVEPAAFLALLRFLYS [P8H] the protein stability index was 1.63.
Variant TSAEIELADVEPAAFLALLRFLYS [P8A] has a protein stability index of 1.97.
TSAEIELTDVEPAAFLALLRFLYS [P8T] showed a protein stability index of 1.74.
TSAEIELSDVEPAAFLALLRFLYS [P8S] gave a protein stability index of 2.06.
Work on TSAEIELCDVEPAAFLALLRFLYS [P8C] yielded a protein stability index of 1.49.
With TSAEIELGDVEPAAFLALLRFLYS [P8G] the protein stability index was 1.96.
Work on TSAEIELFDVEPAAFLALLRFLYS [P8F] yielded a protein stability index of 2.23.
With TSAEIELIDVEPAAFLALLRFLYS [P8I] the protein stability index was 1.62.
With TSAEIELEDVEPAAFLALLRFLYS [P8E] the protein stability index was 2.17.
For TSAEIELWDVEPAAFLALLRFLYS [P8W], the protein stability index was 1.53.
